# Experiments:
# [1] = system: PEPCK, FABP and FAS gene promoters in 3T3-L1 fibroblasts; test: Full length PEPCK, FABP and FAS promoter luciferase reporters in 3T3-L1 fibroblasts; assay type: cell-based; conditions: relative to untreated cells
# Procedure: Control, VP16-CREB or KCREB inducibly expressing 3T3-L1 fibroblasts were transfected with plasmids containing the full length promoters of the PEPCK, FABP or FAS genes linked to luciferase. The cells were cotransfected with the internal control plasmid, pRSV-pGal. […] Cell lysates were then prepared, and luciferase activity measured as an index of transcriptional activity. Levels of transcription are shown relative to levels measured in untreated cells for each promoter tested, and were corrected for transfection efficiency.
# [2] = system: PPARγ2 and FABP expression in 3T3-L1 cell lines; test: Expression of adipocyte-specific markers PPARγ2 (Western) and FABP (RNA blot); assay type: cell-based; conditions: muristerone-treated VP16-CREB cell lines, absence of other differentiation-stimulating agents
# Procedure: In this experiment, control, VP16-CREB and KCREB expressing cells lines were grown and treated as above. On days 0 and 10 of the experiment, whole cell lysates and total RNA were prepared from duplicate wells of cells. Approximately 25 ug of protein in the cell lysates (lysed directly on multiwell slides in SDS gel loading buffer) was separated on 10% polyacrylamide-SDS gels and transferred to nitrocellulose blots. The blots were probed with a polyclonal antibody to PPARγ2, and the specific PPARγ2 band is indicated by an * in the top row of blots (FIG. 3).
# Similarly, 10 ug of total RNA was separated on 1% denaturing (formaldehyde) agarose gels run at 5 V/cm until the Bromophenol Blue tracking dye had migrated half the length of the gel. The gels were soaked in several changes of distilled water, overnight at 4° C., and stained with ethidium bromide and briefly examined in ultraviolet light to insure RNA integrity and equivalent RNA amounts in each lane. The gels were destained in several changes of 5× sodium chloride/sodium citrate (SSC) buffer. RNA was transferred onto nitrocellulose membranes. The resulting blots were heated to 80° C. under vacuum for two hours. The membranes were blocked for 30 minutes at 70° C., and then a biotin-labeled FABP-specific oligonucleotide probe (250 fg/ml) was added for an additional 30 min. […]
# [3] = system: CREluc reporter in HEK cells; test: CREluc reporter in HEK cells transfected with CREB constructs; assay type: cell-based; conditions: transient transfection of adenoviral expression plasmids
# Source text: CDNA for KCREB, CREB DIEDML and VP16CREB were cloned into adenoviral expression vectors as described previously herein. The plasmids were transiently transfected into HEK cells to assess their impact upon a cotransfected CREluc reporter construct. […] Transfected cells were also lysed and CREB protein content and Flag content assayed Western analysis. All proteins were highly expressed in HEK cells (data not shown).
# [4] = system: PEPCK gene promoter in NIH 3T3-L1 clonal cell lines; test: Truncated CRE-containing PEPCK promoter luciferase reporter (-109 pPC-Luc) in 3T3-L1 clones; assay type: cell-based; conditions: VP16-CREB clones 2-4 and 9-7; muristerone; versus untreated cells
# Procedure: To test the ability of KCREB and VP16-CREB expression to influence gene transcription, a plasmid containing a truncated, CRE-containing portion of the phosphoenolpyruvate carboxykinase (PEPCK) gene promoter linked to a luciferase reporter gene (−109 pPC-Luc) was transfected into each of the clones. […] Four hours later cell lysates were prepared and luciferase activity measured as an index of transcriptional activity. Levels are shown relative to levels of luciferase activity in untreated, control cells (No Add'n).
# [5] = system: 3T3-L1 cells; test: 3T3-L1 cell proliferation (Cell-Titer 96 Aq); assay type: cell-based; conditions: muristerone-treated versus control clones, 72 hours
# Procedure: 3T3-L1 fibroblasts were passaged and treated with differentiation-inducing agents as previously described (Klemm et al., 1998, J. Biol. Chem., 273:917-923), incorporated herein by reference in its entirety. Plates of 3T3-L1 fibroblasts and adipocytes were grown to 70-80% confluency and transfected with the above-described plasmids with Superfect Reagent (Oiagen, Valencia, Calif.) according to the manufacturer's recommendations. Cells stably transfected with the plasmid, pVgRXR were selected for in conventional medium containing 500 ug/mi Zeocin, and cells stably transfected with pIND-VP16-CREB, pIND-KCREB or pIND-LacZ plasmids were selected for in medium containing 500 ug/ml Geneticin. Large, rapidly growing, well separated colonies were isolated 10 to 12 days after selection was begun with either antibiotic. […] The effect of VP16-CREB and KCREB expression on 3T3-L1 proliferation was assessed by measuring cell number with the Cell-Titer 96 Aq reagent system (Promega Corp., Madison, Wis.).
# Two possible mechanisms by which CREB could potentiate adipose differentiation would be by increasing cell proliferation related to clonal expansion, or by inhibiting cell growth as a prelude to terminal differentiation. To examine these possibilities, changes in the rate of cell growth in control versus muristerone-treated VP16-CREB and KCREB expressing clones was measured.
# [6] = system: BASMC; test: Transient VP16CREB transfection in BASMC, phenotype; assay type: cell-based, bovine; conditions: preliminary transient transfections
# Source text: It is expected that dominant negative CREB and sense ICER will lead to SMC phenotypic modulation. If the dose delivered overwhelms the cells, apoptosis may occur. Assays to confirm or deny the induction of apoptosis are readily available in the lab in conjunction with the neurodegeneration REAP. Overexpression of WT CREB is likely to promote a differentiated phenotype. The present inventors have already provided data above showing arrest of cell cycle and decreased migration with CREB overexpression. The constitutively active CREB could induce ICER and promote dedifferentiation, promote proliferation by driving immediate early genes, or maintain the mature phenotype. Adenoviral overexpression of constitutively active signaling elements can lead to non-physiological protein interactions. […] The dominant negative CREB and ICER overexpression experiments will be the most informative for the question of how CREB down-regulation impacts phenotype.
# [7] = system: NIH 3T3-L1 preadipocyte cell lines; test: Adipocyte differentiation assay, Oil Red O staining of triacylglycerol; assay type: cell-based; conditions: muristerone-induced expression alone, no differentiation agents, 10 days
# Procedure: Differentiation assays were performed on cells growing on 8 chamber microscope slides. […] The cells were treated with a differentiation mixture, muristerone, or both. […] Muristerone was added to medium at a final concentration of 10 uM for the entire 10 day differentiation period. After 10 days in culture, the cells were stained with Oil Red 0 to visualize triacylglycerol vesicles as previously described (Klemm et al., 1998, J. Biol. Chem., 273:917-923), and counterstained with hematoxylin to visualize cell morphology. Cells were observed by brightfield microscopy and representative fields, were photographed.
molecule,measurement,setting,value
"VP16-CREB: constitutively active fusion protein: VP16 transactivation domain (aa 412-490) linked to CREB DNA binding domain (aa 217-327), SEQ ID NO:6 (protein, listed as Homo sapiens) MAPKKKRKVPGVPSSNCIDTAPPTDVSLGDELHLDGEDVAMAHADAHDDFDLDMLGDGDSPGPGFTPHDSAPYGALDMADFEFEQMFTDALGIDEYGGIDWILVPSNQVVVQAASGDVQTYQIRTAPTSTIAPGVVMASSPALPTQPAEEAARKREVRLMKNREAARECRRKKKEYVKCLENRVAVLENQNKTLIEELKALKDLYCHKSZ","transcription (luciferase) from full-length PEPCK, FABP and FAS promoters",[1],stimulated
same,"PPARγ2 and FABP expression, day 10",[2],easily detected
same,CREluc reporter luciferase expression,[3],strongly drive the reporter
same,"luciferase production from the PEPCK promoter fragment, stimulation",[4],3.5 to 4 fold
same,rate of cell proliferation,[5],No significant differences in the rate of cell proliferation
same,SMC phenotype,[6],phenotypic changes consistent with increased differentiation
same,triacylglycerol accumulation and cell morphology (Oil Red O),[7],sufficient to induce triacylglycerol accumulation and rounded cell morphology

# From patent US20040097454A1, “Method for modulation of cell phenotype” (University Technology Corporation, priority 1999, published 2004)
